Measurements reported in patent publication US20120058906A1.
Values belong to the substance of their own block, whether it stands above or below them.

Experiments:
[1] = molecular target: rHuman CD44/Fc Chimera, CF (R&D Systems Cat#3660-CD) (human) (UniProt P16070); assay: MSD ECL multi-spot assay, antigen spotted on plate, Fab 0.25 uM; blank spot 3693
[2] = molecular target: rHuman HGF R/c-MET/Fc Chimera, CF (R&D Systems Cat#358-MT/CF) (human) (UniProt P08581); assay: as above
[3] = molecular target: rHuman CD44/Fc Chimera, CF (R&D Systems Cat#3660-CD) (human) (UniProt P16070); assay: ECL (MSD multi-spot) titration, Fab at 0.01563 uM; blank spot 906
[4] = molecular target: rHuman CD44/Fc Chimera, CF (R&D Systems Cat#3660-CD) (human) (UniProt P16070); assay: ECL (MSD multi-spot) titration, Fab at 0.00391 uM; blank spot 576
[5] = molecular target: rHuman CD44/Fc Chimera, CF (R&D Systems Cat#3660-CD) (human) (UniProt P16070); assay: ECL (MSD multi-spot) titration, Fab at 0.25 uM; blank spot 6344
[6] = molecular target: rHuman CD44/Fc Chimera, CF (R&D Systems Cat#3660-CD) (human) (UniProt P16070); assay: ECL (MSD multi-spot) titration, Fab at 0.0625 uM; blank spot 1738
[7] = molecular target: rHuman P-Cadherin/Fc Chimera, CF (R&D Systems Cat#861-PC) (human) (UniProt P22223); assay: MSD ECL multi-spot plate; Fab 4.375 nM; blank spot 305
[8] = molecular target: rHuman CD44/Fc Chimera, CF (R&D Systems Cat#3660-CD) (human) (UniProt P16070); assay: MSD ECL multi-spot assay, antigen spotted on plate, Fab 0.28 uM; blank spot 1773
[9] = molecular target: rHuman HGF R/c-MET/Fc Chimera, CF (R&D Systems Cat#358-MT/CF) (human) (UniProt P08581); assay: as above
[10] = molecular target: rHuman ErbB2/Fc Chimera, CF (R&D Systems Cat#1129-ER) (human) (UniProt P04626); assay: as above
[11] = molecular target: rHuman Notch-1/Fc Chimera, CF (R&D Systems Cat#3647-TK) (human) (UniProt P46531); assay: as above
[12] = molecular target: rHuman IGF-1 sR (IGF-1 sR), CF (R&D Systems Cat#391-GR) (human) (UniProt P08069); assay: as above
[13] = molecular target: rHuman P-Cadherin/Fc Chimera, CF (R&D Systems Cat#861-PC) (human) (UniProt P22223); assay: MSD ECL multi-spot plate; Fab 280 nM; blank spot 1691
[14] = molecular target: rHuman P-Cadherin/Fc Chimera, CF (R&D Systems Cat#861-PC) (human) (UniProt P22223); assay: MSD ECL multi-spot plate; Fab 70 nM; blank spot 635
[15] = molecular target: rHuman P-Cadherin/Fc Chimera, CF (R&D Systems Cat#861-PC) (human) (UniProt P22223); assay: MSD ECL multi-spot plate; Fab 17.5 nM; blank spot 304
[16] = molecular target: rHuman EGF R/Fc Chimera, CF (R&D Systems Cat#344-ER) (human) (UniProt P00533); assay: ECL (MSD Multi-Spot) titration, antigen spotted on plate; Fab 0.312 µM; blank spot 1977
[17] = molecular target: rHuman CD44/Fc Chimera, CF (R&D Systems Cat#3660-CD) (human) (UniProt P16070); assay: as above
[18] = molecular target: rHuman Erythropoietin R/Fc Chimera, CF (R&D Systems Cat#963-ER) (human) (UniProt P19235); assay: as above
[19] = molecular target: rHuman HGF R/c-MET/Fc Chimera, CF (R&D Systems Cat#358-MT/CF) (human) (UniProt P08581); assay: as above
[20] = molecular target: rHuman ErbB2/Fc Chimera, CF (R&D Systems Cat#1129-ER) (human) (UniProt P04626); assay: as above
[21] = molecular target: rHuman Notch-1/Fc Chimera, CF (R&D Systems Cat#3647-TK) (human) (UniProt P46531); assay: as above
[22] = molecular target: Recombinant Human DLL4 (R&D Systems Cat#1506-D4/CF) (human) (UniProt Q9NR61); assay: as above
[23] = molecular target: rHuman EGF R/Fc Chimera, CF (R&D Systems Cat#344-ER) (human) (UniProt P00533); assay: ECL (MSD Multi-Spot) titration, antigen spotted on plate; Fab […]; blank spot 4357
[24] = molecular target: rHuman CD44/Fc Chimera, CF (R&D Systems Cat#3660-CD) (human) (UniProt P16070); assay: as above
[25] = molecular target: rHuman Erythropoietin R/Fc Chimera, CF (R&D Systems Cat#963-ER) (human) (UniProt P19235); assay: as above
[26] = molecular target: rHuman HGF R/c-MET/Fc Chimera, CF (R&D Systems Cat#358-MT/CF) (human) (UniProt P08581); assay: as above
[27] = molecular target: rHuman ErbB2/Fc Chimera, CF (R&D Systems Cat#1129-ER) (human) (UniProt P04626); assay: as above
[28] = molecular target: rHuman Notch-1/Fc Chimera, CF (R&D Systems Cat#3647-TK) (human) (UniProt P46531); assay: as above
[29] = molecular target: Recombinant Human DLL4 (R&D Systems Cat#1506-D4/CF) (human) (UniProt Q9NR61); assay: as above
[30] = molecular target: rHuman EGF R/Fc Chimera, CF (R&D Systems Cat#344-ER) (human) (UniProt P00533); assay: MSD ECL multi-spot assay, antigen spotted on plate, Fab […]; blank spot 1129
[31] = molecular target: rHuman CD44/Fc Chimera, CF (R&D Systems Cat#3660-CD) (human) (UniProt P16070); assay: as above
[32] = molecular target: rHuman Erythropoietin R/Fc Chimera, CF (R&D Systems Cat#963-ER) (human) (UniProt P19235); assay: as above
[33] = molecular target: rHuman HGF R/c-MET/Fc Chimera, CF (R&D Systems Cat#358-MT/CF) (human) (UniProt P08581); assay: as above
[34] = molecular target: rHuman ErbB2/Fc Chimera, CF (R&D Systems Cat#1129-ER) (human) (UniProt P04626); assay: as above
[35] = molecular target: rHuman Notch-1/Fc Chimera, CF (R&D Systems Cat#3647-TK) (human) (UniProt P46531); assay: as above
[36] = molecular target: Recombinant Human DLL4 (R&D Systems Cat#1506-D4/CF) (human) (UniProt Q9NR61); assay: as above
[37] = molecular target: rHuman EGF R/Fc Chimera, CF (R&D Systems Cat#344-ER) (human) (UniProt P00533); assay: ECL (MSD Multi-Spot) titration, antigen spotted on plate; Fab 0.0624 µM; blank spot 960
[38] = molecular target: rHuman CD44/Fc Chimera, CF (R&D Systems Cat#3660-CD) (human) (UniProt P16070); assay: as above
[39] = molecular target: rHuman Erythropoietin R/Fc Chimera, CF (R&D Systems Cat#963-ER) (human) (UniProt P19235); assay: as above
[40] = molecular target: rHuman HGF R/c-MET/Fc Chimera, CF (R&D Systems Cat#358-MT/CF) (human) (UniProt P08581); assay: as above
[41] = molecular target: rHuman ErbB2/Fc Chimera, CF (R&D Systems Cat#1129-ER) (human) (UniProt P04626); assay: as above
[42] = molecular target: rHuman Notch-1/Fc Chimera, CF (R&D Systems Cat#3647-TK) (human) (UniProt P46531); assay: as above
[43] = molecular target: Recombinant Human DLL4 (R&D Systems Cat#1506-D4/CF) (human) (UniProt Q9NR61); assay: as above

Sequence of rHuman Erythropoietin R/Fc Chimera, CF (R&D Systems Cat#963-ER) (human) (P19235 25-250, change not shown): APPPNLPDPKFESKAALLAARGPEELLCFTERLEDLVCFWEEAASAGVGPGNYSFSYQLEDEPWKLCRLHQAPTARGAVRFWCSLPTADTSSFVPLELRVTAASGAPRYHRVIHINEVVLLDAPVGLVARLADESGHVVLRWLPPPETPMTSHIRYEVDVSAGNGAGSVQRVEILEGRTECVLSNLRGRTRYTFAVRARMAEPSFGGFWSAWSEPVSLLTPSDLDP

ECL signal [1]: 10400
ECL signal [2]: 5910
ECL signal [3]: 3180
ECL signal [4]: 1300
ECL signal [5]: 23000
ECL signal [6]: 6750
Substance: Fab VH1-46_IGHD2-15*01_IGHJ2*01 & L2_IGKJ1*01

ECL signal [7]: 469 ECL signal
ECL signal [8]: 4560
ECL signal [9]: 5180
ECL signal [10]: 4310
ECL signal [11]: 5280
ECL signal [12]: 4640
ECL signal [13]: 5400 ECL signal
ECL signal [14]: 1820 ECL signal
ECL signal [15]: 949 ECL signal
Substance: Fab VH1-46_IGHD2-15*01_IGHJ2*01 & L12_IGKJ1*01

ECL signal [16]: 4330
ECL signal [17]: 4170
ECL signal [18]: 5020
ECL signal [19]: 4690
ECL signal [20]: 3660
ECL signal [21]: 4460
ECL signal [22]: 5480
ECL signal [23]: 7830
ECL signal [24]: 7600
ECL signal [25]: 9480
ECL signal [26]: 10300
ECL signal [27]: 7580
ECL signal [28]: 9450
ECL signal [29]: 10900
ECL signal [30]: 2500
ECL signal [31]: 2280
ECL signal [32]: 4130
ECL signal [33]: 3120
ECL signal [34]: 2450
ECL signal [35]: 3950
ECL signal [36]: 3770
ECL signal [37]: 2420
ECL signal [38]: 2110
ECL signal [39]: 2680
ECL signal [40]: 2450
ECL signal [41]: 2150
ECL signal [42]: 2350
ECL signal [43]: 2580
Substance: Fab VH1-46_IGHD7-27*01_IGHJ2*01 & L6_IGKJ1*01
